From the supplement of paper PMC10065799, “High-throughput profiling of sequence recognition by tyrosine kinases and SH2 domains using bacterial peptide display” (eLife, 2023)

Assays:
Hck = Hck (UniProt P08631); test: phosphorylation enrichment, bacterial display (enrichment ratio); higher = better substrate or ligand; peptides without Tyr show the background
Jak2 = Jak2 (UniProt O60674); test: as above
Fes = Fes (UniProt P07332); test: as above
FGFR1 = FGFR1 (UniProt P11362); test: as above
Fer (mouse) = test: as above
EPHB2 = EPHB2 (UniProt P29323); test: as above
Chain of EPHB2 (P29323 whole entry, looked up): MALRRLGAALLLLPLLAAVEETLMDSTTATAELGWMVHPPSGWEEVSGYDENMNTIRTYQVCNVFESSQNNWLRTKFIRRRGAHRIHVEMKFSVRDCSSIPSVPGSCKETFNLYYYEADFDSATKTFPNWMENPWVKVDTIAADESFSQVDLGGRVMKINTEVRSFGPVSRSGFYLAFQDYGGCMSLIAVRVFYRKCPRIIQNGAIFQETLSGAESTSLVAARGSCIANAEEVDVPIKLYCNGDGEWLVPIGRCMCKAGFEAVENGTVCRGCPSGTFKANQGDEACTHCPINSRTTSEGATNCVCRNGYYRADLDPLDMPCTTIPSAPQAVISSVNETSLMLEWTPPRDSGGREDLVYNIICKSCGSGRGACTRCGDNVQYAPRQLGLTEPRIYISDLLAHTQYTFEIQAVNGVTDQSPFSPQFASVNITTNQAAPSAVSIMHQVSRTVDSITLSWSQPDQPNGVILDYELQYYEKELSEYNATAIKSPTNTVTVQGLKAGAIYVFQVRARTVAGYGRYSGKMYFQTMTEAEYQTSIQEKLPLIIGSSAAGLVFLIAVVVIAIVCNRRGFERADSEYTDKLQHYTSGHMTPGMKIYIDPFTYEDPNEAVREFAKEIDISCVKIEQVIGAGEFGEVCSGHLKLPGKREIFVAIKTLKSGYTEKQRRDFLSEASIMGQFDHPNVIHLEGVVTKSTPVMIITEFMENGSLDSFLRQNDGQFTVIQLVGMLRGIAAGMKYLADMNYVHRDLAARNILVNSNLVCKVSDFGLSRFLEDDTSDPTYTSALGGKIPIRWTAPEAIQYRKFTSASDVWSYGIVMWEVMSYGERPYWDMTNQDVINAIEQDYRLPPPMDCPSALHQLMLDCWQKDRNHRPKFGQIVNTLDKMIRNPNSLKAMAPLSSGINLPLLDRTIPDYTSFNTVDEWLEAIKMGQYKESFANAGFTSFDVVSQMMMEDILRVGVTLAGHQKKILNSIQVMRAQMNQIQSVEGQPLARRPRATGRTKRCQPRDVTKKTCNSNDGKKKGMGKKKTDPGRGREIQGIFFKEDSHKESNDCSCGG

EPHB1 = EPHB1 (UniProt P54762); test: as above
MERTK = MERTK (UniProt Q12866); test: as above
Chain of MERTK (Q12866 whole entry, looked up): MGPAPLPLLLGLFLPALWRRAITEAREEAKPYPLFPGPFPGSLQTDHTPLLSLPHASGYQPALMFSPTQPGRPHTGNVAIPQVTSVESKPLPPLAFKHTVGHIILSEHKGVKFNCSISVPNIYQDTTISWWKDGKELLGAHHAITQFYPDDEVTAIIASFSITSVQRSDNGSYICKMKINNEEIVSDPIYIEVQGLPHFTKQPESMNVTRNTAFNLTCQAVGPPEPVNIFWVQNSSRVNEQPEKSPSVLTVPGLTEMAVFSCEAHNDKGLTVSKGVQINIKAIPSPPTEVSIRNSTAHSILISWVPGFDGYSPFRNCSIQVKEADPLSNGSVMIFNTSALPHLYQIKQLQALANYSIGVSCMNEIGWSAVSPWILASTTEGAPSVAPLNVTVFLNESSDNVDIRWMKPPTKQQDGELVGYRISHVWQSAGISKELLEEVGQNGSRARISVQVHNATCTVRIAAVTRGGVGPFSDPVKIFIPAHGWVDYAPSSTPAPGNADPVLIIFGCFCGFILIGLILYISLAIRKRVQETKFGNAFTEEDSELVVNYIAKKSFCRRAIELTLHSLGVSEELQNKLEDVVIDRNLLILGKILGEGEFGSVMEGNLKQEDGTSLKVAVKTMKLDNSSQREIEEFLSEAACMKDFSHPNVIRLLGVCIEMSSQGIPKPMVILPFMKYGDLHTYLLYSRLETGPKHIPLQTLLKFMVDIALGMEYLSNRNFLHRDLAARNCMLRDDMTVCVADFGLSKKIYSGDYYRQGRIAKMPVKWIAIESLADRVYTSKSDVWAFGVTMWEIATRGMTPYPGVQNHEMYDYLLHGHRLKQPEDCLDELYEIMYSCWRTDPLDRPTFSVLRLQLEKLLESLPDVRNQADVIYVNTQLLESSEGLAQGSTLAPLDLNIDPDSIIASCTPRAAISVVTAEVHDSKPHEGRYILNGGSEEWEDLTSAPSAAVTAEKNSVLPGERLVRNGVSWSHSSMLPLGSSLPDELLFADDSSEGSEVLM

AncSZ = test: as above
FGFR3 = FGFR3 (UniProt P22607); test: as above
Chain of FGFR3 (P22607 whole entry, looked up): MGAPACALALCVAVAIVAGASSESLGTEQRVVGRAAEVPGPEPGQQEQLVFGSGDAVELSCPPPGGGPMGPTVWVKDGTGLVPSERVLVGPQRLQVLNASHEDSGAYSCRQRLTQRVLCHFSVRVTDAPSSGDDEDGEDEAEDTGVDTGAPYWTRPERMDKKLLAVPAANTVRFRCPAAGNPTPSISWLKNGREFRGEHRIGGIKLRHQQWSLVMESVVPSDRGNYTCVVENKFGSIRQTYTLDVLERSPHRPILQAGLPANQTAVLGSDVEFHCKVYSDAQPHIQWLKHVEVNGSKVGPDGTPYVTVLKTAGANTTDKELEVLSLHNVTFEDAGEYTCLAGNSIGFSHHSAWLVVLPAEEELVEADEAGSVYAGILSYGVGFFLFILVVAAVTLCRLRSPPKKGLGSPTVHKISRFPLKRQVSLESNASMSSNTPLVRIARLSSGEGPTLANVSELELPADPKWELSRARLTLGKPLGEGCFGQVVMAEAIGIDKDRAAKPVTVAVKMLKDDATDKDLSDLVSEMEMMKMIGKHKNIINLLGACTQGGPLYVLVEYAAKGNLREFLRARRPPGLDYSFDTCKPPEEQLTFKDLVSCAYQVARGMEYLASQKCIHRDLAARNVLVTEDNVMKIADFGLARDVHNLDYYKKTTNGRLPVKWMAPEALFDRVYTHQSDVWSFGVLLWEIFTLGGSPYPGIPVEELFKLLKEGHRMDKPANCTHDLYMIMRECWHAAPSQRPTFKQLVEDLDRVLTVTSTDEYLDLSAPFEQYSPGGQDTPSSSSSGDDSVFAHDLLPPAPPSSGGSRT

c-Src = test: as above
c-Abl (mouse) = test: as above
Fyn = Fyn (UniProt P06241); test: as above
Chain of Fyn (P06241 whole entry, looked up): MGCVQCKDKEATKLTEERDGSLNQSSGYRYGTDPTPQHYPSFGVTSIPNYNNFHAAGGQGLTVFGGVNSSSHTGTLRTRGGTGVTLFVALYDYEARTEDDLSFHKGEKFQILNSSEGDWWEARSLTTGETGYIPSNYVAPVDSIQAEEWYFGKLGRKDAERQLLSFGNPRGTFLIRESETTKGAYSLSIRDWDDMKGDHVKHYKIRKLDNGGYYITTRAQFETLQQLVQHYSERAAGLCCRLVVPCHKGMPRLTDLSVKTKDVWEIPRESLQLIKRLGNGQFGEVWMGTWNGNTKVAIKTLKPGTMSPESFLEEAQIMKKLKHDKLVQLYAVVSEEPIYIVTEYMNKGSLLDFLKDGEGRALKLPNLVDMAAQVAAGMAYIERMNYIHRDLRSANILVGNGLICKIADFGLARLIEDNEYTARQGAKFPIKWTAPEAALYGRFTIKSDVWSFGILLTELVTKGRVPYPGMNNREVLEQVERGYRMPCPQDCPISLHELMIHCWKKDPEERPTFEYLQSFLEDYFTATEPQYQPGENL

c-Src SH2 = test: SH2 binding enrichment of the phosphorylated peptide, bacterial display (enrichment ratio); higher = better substrate or ligand; peptides without Tyr show the background
SHP2-C SH2 = test: as above
Grb2 SH2 = Grb2 SH2 (UniProt P62993); test: as above
Chain of Grb2 SH2 (P62993 whole entry, looked up, the tested form may be a part): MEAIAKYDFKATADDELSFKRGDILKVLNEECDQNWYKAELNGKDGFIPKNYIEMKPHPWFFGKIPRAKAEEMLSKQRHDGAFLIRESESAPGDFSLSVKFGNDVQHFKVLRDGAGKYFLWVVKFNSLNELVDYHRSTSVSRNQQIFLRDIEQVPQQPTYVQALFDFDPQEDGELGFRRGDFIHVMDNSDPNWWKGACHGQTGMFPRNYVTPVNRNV
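Wherever SH2 binding enrichment of the phosphorylated peptide, bacterial display is given: peptide library displayed on the E. coli surface as eCPX fusions, selected cells deep-sequenced, score is each peptide's frequency after selection divided by its frequency in the input.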
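Wherever phosphorylation enrichment, bacterial display is given: 11-residue human phosphosite peptides and single-mutation variants displayed on the E. coli surface, counted by deep sequencing, each peptide's frequency after selection divided by its frequency in the unselected input library; frequency after pTyr selection over input frequency; kinase dosed for 20-30% of maximal phosphorylation in three min.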

Chain of Hck (P08631 whole entry, looked up): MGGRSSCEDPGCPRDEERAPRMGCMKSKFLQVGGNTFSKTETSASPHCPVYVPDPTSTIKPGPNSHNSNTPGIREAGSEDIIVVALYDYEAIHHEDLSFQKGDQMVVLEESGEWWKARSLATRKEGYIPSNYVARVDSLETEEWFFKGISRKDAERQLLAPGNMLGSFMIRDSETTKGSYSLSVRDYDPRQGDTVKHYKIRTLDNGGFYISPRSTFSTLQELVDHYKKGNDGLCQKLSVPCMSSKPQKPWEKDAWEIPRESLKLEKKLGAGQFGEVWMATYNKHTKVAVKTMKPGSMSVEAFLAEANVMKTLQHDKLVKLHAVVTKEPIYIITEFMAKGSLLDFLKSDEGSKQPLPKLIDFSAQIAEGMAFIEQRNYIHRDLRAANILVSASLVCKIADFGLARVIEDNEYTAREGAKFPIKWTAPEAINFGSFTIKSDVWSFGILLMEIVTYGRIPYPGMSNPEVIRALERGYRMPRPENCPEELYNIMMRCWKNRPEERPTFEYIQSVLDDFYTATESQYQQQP
Chain of FGFR1 (P11362 whole entry, looked up): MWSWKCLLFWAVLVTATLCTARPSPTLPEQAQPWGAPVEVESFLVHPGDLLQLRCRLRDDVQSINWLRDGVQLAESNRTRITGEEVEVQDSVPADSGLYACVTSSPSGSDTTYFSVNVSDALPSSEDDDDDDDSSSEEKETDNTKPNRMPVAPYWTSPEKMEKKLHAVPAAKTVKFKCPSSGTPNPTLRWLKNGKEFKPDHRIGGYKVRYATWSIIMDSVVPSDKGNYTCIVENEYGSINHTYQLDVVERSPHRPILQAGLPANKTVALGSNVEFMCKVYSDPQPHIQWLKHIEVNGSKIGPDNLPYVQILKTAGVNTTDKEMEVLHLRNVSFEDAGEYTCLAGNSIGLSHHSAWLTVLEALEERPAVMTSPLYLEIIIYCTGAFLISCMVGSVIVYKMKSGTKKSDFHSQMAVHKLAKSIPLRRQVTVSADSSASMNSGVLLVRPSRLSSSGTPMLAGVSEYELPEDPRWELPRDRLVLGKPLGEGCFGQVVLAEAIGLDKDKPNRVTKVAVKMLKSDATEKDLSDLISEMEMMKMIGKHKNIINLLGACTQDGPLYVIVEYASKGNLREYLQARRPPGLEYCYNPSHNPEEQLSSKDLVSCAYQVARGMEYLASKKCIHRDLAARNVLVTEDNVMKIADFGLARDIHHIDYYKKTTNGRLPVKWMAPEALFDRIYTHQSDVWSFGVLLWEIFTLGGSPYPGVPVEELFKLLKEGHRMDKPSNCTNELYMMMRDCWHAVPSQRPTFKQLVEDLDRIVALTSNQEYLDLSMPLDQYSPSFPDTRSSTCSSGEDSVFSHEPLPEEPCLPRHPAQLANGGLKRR

Row | Sequence | phosphorylation enrichment (Hck) | phosphorylation enrichment (Jak2) | phosphorylation enrichment (Fes) | phosphorylation enrichment (FGFR1) | phosphorylation enrichment (Fer (mouse)) | phosphorylation enrichment (EPHB2) | phosphorylation enrichment (EPHB1) | phosphorylation enrichment (MERTK) | phosphorylation enrichment (AncSZ) | phosphorylation enrichment (FGFR3) | phosphorylation enrichment (c-Src) | phosphorylation enrichment (c-Abl (mouse)) | phosphorylation enrichment (Fyn) | SH2 binding enrichment (c-Src SH2) | SH2 binding enrichment (SHP2-C SH2) | SH2 binding enrichment (Grb2 SH2)
1 | AARVSYRLASG [DCHS1_Y1582] | 0.378 | 0.428 | 0.588 | 0.354 | 0.51 | 0.49 | 0.352 | 0.422 | 0.554 | 0.392 | 0.382 | 0.423 | 0.315 | 0.409 | 0.759 | 0.842
2 | ADARMYGVLPR [PLP1_Y207_W212R] | 3.23 | 0.398 | 0.467 | 0.467 | 0.385 | 0.477 | 0.378 | 0.405 | 0.598 | 0.44 | 0.727 | 0.481 | 0.536 | 0.557 | 0.629 | 0.661
3 | ADDSYYTARSA [ZAP70_Y493] | 1.12 | 0.597 | 0.706 | 0.773 | 0.518 | 0.603 | 0.484 | 0.634 | 0.932 | 0.754 | 0.7 | 0.542 | 0.623 | 0.401 | 0.448 | 0.861
4 | ADEEFYEIIAA [FEStide_F_2014] | 3.26 | 1.09 | 1.57 | 1.5 | 7.22 | 0.77 | 0.886 | 2.19 | 2.54 | 1.4 | 3.36 | 0.853 | 2.42 | 0.729 | 0.605 | 0.917
5 | ADGLEYSRTEL [MMUT_Y287_G291E] | 0.547 | 0.747 | 0.873 | 0.552 | 0.56 | 0.572 | 0.483 | 0.437 | 1.03 | 0.637 | 0.461 | 0.621 | 0.527 | 0.447 | 0.596 | 0.717
6 | ADGLEYSRTGL [MMUT_Y287] | 0.776 | 0.855 | 0.978 | 0.602 | 0.514 | 1.6 | 0.555 | 0.592 | 0.99 | 0.559 | 0.641 | 0.878 | 0.544 | 0.373 | 0.606 | 0.758
7 | ADMETYLLEKS [MYH7_Y266_I263M] | 0.549 | 0.983 | 1.11 | 0.573 | 0.454 | 0.581 | 0.612 | 0.447 | 0.949 | 0.582 | 0.869 | 0.864 | 0.573 | 0.523 | 0.564 | 0.67
8 | ADRNHYRRFRR [YBX1_Y145_P149R_YF] | 0.544 | 0.579 | 0.561 | 0.509 | 0.435 | 0.447 | 0.462 | 0.672 | 0.564 | 0.721 | 0.548 | 0.507 | 0.57 | 0.428 | 0.659 | 0.669
9 | AEEKEYHAEEG [EGFR_Y869_G873E] | 0.573 | 1.01 | 1.15 | 0.605 | 0.494 | 0.815 | 0.649 | 0.445 | 1.29 | 0.747 | 0.451 | 0.84 | 0.633 | 0.552 | 0.746 | 0.994
10 | AEQEEYSAMRD [NRAS_Y64_G60E] | 0.571 | 1.14 | 1.26 | 0.525 | 0.469 | 0.566 | 0.541 | 0.478 | 1.4 | 0.737 | 0.536 | 0.802 | 0.458 | 0.456 | 0.785 | 1.01
11 | AGADGYDFLAP [FOXL2_Y186_G187D_YF] | 0.79 | 1.03 | 1.17 | 0.543 | 0.598 | 0.645 | 0.554 | 0.708 | 0.984 | 0.744 | 0.555 | 0.785 | 0.452 | 5.67 | 0.661 | 0.883
12 | AHPIIYDIIEA [PYKtide_D_2014] | 8.25 | 0.949 | 2.13 | 0.699 | 11.9 | 10.7 | 12.7 | 9.44 | 1.41 | 0.794 | 6.44 | 5.89 | 7.74 | 1.25 | 0.483 | 0.819
13 | AKAEICEMRPL [COX10_Y97_Y97C] | 0.608 | 0.716 | 0.921 | 0.593 | 0.602 | 0.516 | 0.469 | 0.437 | 0.709 | 0.477 | 0.533 | 0.738 | 0.389 | 0.679 | 0.798 | 1.01
14 | AKAFIYASHIV [ZNF573_Y229_G224A] | 0.842 | 0.908 | 1.08 | 0.561 | 1.57 | 0.771 | 0.7 | 0.501 | 0.962 | 0.965 | 1.53 | 1.44 | 1 | 0.637 | 0.724 | 0.82
15 | AKFPSYEKNKK [FOXL2_Y91_F90S] | 0.44 | 1.07 | 0.7 | 0.618 | 0.49 | 0.396 | 0.577 | 0.499 | 0.624 | 0.475 | 0.562 | 0.544 | 0.423 | 0.615 | 0.894 | 0.907
16 | AKIDGYIISYR | 0.604 | 0.966 | 1.39 | 0.607 | 0.566 | 0.657 | 0.678 | 0.46 | 1.15 | 0.684 | 0.568 | 0.755 | 0.37 | 0.685 | 1.03 | 0.961
17 | AKLVQYFMEHH [PTPN11_Y80_E76K_YF] | 0.441 | 0.63 | 0.853 | 0.496 | 0.445 | 0.505 | 0.462 | 0.362 | 0.729 | 0.684 | 0.412 | 0.546 | 0.374 | 0.97 | 1.62 | 1.31

Row | Sequence | phosphorylation enrichment (Hck) | phosphorylation enrichment (Jak2) | phosphorylation enrichment (Fes) | phosphorylation enrichment (FGFR1) | phosphorylation enrichment (Fer (mouse)) | phosphorylation enrichment (EPHB2) | phosphorylation enrichment (EPHB1) | phosphorylation enrichment (MERTK) | phosphorylation enrichment (AncSZ) | phosphorylation enrichment (FGFR3) | phosphorylation enrichment (c-Src) | phosphorylation enrichment (c-Abl (mouse)) | phosphorylation enrichment (Fyn) | SH2 binding enrichment (c-Src SH2) | SH2 binding enrichment (SHP2-C SH2) | SH2 binding enrichment (Grb2 SH2)
18 | ALARKYHGGGG [HBB_Y146_H144R] | 0.317 | 0.507 | 0.408 | 0.353 | 0.444 | 0.307 | 0.418 | 0.337 | 0.372 | 0.33 | 0.435 | 0.407 | 0.365 | 0.536 | 0.549 | 0.8
19 | ALECLYHREKR [TEKT5_Y195] | 0.583 | 0.884 | 1.15 | 0.484 | 0.451 | 0.675 | 0.618 | 0.406 | 1.26 | 0.734 | 0.571 | 0.927 | 0.512 | 0.446 | 0.48 | 1
20 | ALEHKYWALGQ [MAP1A_Y1555_Q1553H] | 0.621 | 0.709 | 0.966 | 0.601 | 0.492 | 0.539 | 0.546 | 0.596 | 0.859 | 0.582 | 1.39 | 0.652 | 0.801 | 14.8 | 0.814 | 0.817
21 | ALHRPYGCDVE [ABL2_Y80] | 0.379 | 0.541 | 0.782 | 0.412 | 0.538 | 0.456 | 0.59 | 0.357 | 0.871 | 0.531 | 0.324 | 0.571 | 0.447 | 0.582 | 0.72 | 1.01
22 | ALIKAYDKAVA [SMN1_Y43] | 0.29 | 0.532 | 0.578 | 0.444 | 0.282 | 0.626 | 0.546 | 0.491 | 0.563 | 0.526 | 0.353 | 0.461 | 0.458 | 0.571 | 0.573 | 0.773
23 | ALLTKYSRSSM [DSCC1_Y374_H376R] | 0.384 | 0.816 | 0.744 | 0.579 | 0.442 | 0.535 | 0.505 | 0.552 | 0.617 | 0.554 | 0.524 | 0.697 | 0.465 | 0.589 | 0.615 | 0.847
24 | ALMGLYHGQVL [HADHA_Y343] | 1.64 | 0.596 | 0.823 | 0.625 | 0.678 | 0.649 | 0.545 | 0.648 | 0.605 | 0.641 | 1.28 | 0.679 | 0.728 | 0.647 | 0.89 | 1.15
25 | ALVFLSFCIIF [SIGLEC12_Y494_Y494S] | 0.466 | 0.871 | 0.865 | 0.45 | 0.39 | 0.489 | 0.329 | 0.449 | 1.05 | 0.603 | 0.439 | 0.974 | 0.496 | 0.793 | 1.39 | 1.85
26 | APRKVYDTRDD [ZFPL1_Y215] | 0.493 | 0.614 | 0.736 | 0.427 | 0.403 | 0.44 | 0.45 | 0.372 | 0.641 | 0.581 | 0.422 | 0.485 | 0.408 | 0.372 | 0.648 | 0.84
27 | APTSGYREFVH [IL4R_Y575_Q576R] | 0.379 | 0.441 | 0.561 | 0.462 | 0.485 | 0.342 | 0.378 | 0.483 | 0.681 | 0.474 | 0.397 | 0.508 | 0.422 | 0.518 | 0.561 | 0.882
28 | AQESNYRLLRQ [SLC20A2_Y377_R382Q] | 0.478 | 0.754 | 0.737 | 0.411 | 0.479 | 0.534 | 0.785 | 0.488 | 0.616 | 0.445 | 0.397 | 0.634 | 0.391 | 0.405 | 1.54 | 0.891
29 | ARAFIYAIIPA [ACKtide_2014] | 4.01 | 1.86 | 1.46 | 1.07 | 0.81 | 2.22 | 5.28 | 6.87 | 1.4 | 1.1 | 3.54 | 2.27 | 2.65 | 0.764 | 0.777 | 1.03
30 | ARGMEYLASKK [FGFR1_Y613] | 0.367 | 0.662 | 0.566 | 0.285 | 0.324 | 0.367 | 0.356 | 0.354 | 0.61 | 0.409 | 0.403 | 0.506 | 0.364 | 0.456 | 0.513 | 0.529
31 | ARIVDYNIIGW [MYH7_Y588_G584R] | 0.56 | 0.671 | 0.846 | 0.81 | 0.406 | 0.662 | 0.542 | 0.454 | 0.808 | 0.839 | 0.445 | 0.561 | 0.545 | 0.874 | 0.607 | 0.735
32 | ASNFNYFFHRE [KCNA1_Y413_V408A_YF] | 0.654 | 0.805 | 1.01 | 0.506 | 0.415 | 0.556 | 0.511 | 0.453 | 1.03 | 0.748 | 0.43 | 0.571 | 0.372 | 0.6 | 1.03 | 1.31
33 | TDIVAYSGRVQ [SPTBN2_Y477] | 0.407 | 1.48 | 0.196 | 0.214 | 0.264 | 2.04 | 0.369 | 0.885 | 0.857 | 1.05 | 1.05 | 1.13 | 1.05 |  |  | 
